Measurements from PMC5983913 (Science Advances, 2018).
Where two headings read alike, the source gives them in different places.

B1: native HPr protein (expressed alone, intact form) (natural protein)
chain: not shown
B2: C-terminal six-His-tagged HPr H15E (natural protein)
chain: not shown
B3: phosphorylated HPr (natural protein)
chain: not shown
modifications: phosphate group at the H15-ND1 atom (phosphohistidine 15); ^15N-labelled

Key:
[1] = biological target: T1, N-terminal His-tagged LsrK (E. coli, UniProt P77432 1-530); assay: enzyme inhibition kinetics
T1 sequence (looked up): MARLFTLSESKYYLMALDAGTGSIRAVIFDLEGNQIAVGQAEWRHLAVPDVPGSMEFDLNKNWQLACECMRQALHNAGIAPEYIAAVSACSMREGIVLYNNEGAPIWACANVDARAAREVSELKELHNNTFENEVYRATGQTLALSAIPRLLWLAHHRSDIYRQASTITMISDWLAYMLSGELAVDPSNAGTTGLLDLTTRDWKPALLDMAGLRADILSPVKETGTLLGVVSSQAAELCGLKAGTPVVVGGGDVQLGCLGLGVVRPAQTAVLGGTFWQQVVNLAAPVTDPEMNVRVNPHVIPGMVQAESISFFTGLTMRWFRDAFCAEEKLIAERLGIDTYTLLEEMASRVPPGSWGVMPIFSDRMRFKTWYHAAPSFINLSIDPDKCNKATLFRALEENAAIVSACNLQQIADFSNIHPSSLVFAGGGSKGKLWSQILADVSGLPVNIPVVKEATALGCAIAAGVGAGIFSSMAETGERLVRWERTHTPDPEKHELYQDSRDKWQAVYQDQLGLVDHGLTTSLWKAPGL

[2] = biological target: T1, N-terminal His-tagged LsrK; assay: enzyme inhibition kinetics; remark: listed apart in the source

Row | Binder | Ki [1] | Ki [2] | fold lower inhibition activity than WT HPr [2]
1 | B1 | 0.32 ± 0.07 µM | – | –
2 | B2 | – | 1.2 ± 0.2 µM | ~5 fold
3 | B3 | 8.4 ± 0.5 µM | – | –
